Target: Hfq (Escherichia coli, UniProt P0A6X3 1-102)
Experiment: competition; competitor 20-600 fmol vs 20 fmol labelled tRNA (N1); Same conditions as the CCA-addition assay (30 °C, 1 and 10 min); buffer, salt and pH not in the material; native 6% polyacrylamide gel
Conditions: protein: recombinant; chain copies: 6

Sequence of Hfq (P0A6X3 whole entry): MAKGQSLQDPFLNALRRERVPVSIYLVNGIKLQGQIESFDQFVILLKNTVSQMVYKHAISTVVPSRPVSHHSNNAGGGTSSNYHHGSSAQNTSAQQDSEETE

B1: pCR 2.1 TOPO run-off transcript (ssRNA)
RNA: GGGCGAAUUGGGCCCUCUAGAUGCAUGCUCGAGCGGCCGCCAGUGUGAUGGAU
B1: no binding.

From paper PMC2175515, “Hfq stimulates the activity of the CCA-adding enzyme”
